Laboratory results taken from paper PMC8110955, “A synthetic RNA editing factor edits its target site in chloroplasts and bacteria”.

T1: MORF9 (UniProt Q9LPZ1 75-196, C85S;C187S)
T1 sequence: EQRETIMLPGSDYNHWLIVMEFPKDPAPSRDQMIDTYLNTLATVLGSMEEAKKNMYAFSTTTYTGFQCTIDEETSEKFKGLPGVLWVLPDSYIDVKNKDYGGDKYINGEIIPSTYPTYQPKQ


Target: T1, MORF9
Test: EMSA; MORF9 alone, up to highest concentration; REMSA: 1 nM RNA, 2x buffer is 85 mM Tris, 165 mM HEPES, 200 mM NaCl, 12.5 mM DTT, 0.25 mM EDTA, 1.25 mg/mL heparin, 0.1 mg/mL BSA; 30 min at ambient temperature; 5% polyacrylamide gel; pH not stated
Details: protein: recombinant; tags: N-terminal His-TEV tag cleaved off; label: 5'-Cy5; single strand

| Binder | binding result |
| --- | --- |
| CAGCAACAGAAGCCCAAGCUCAUGGA (ssRNA) [clpP1_REMSA (clpP1-69942)] | no binding |
| AUGUAUUACACGUGCAAAAUCUGAGA (ssRNA) [rpoA_REMSA (rpoA-78691)] | no binding |
